Source: article PMC9352680, “A comprehensive thermodynamic model for RNA binding by the Saccharomyces cerevisiae Pumilio protein PUF4”

T1: PUF4 RNA-binding domain (Saccharomyces cerevisiae, UniProt P25339 537-888)
T1 sequence: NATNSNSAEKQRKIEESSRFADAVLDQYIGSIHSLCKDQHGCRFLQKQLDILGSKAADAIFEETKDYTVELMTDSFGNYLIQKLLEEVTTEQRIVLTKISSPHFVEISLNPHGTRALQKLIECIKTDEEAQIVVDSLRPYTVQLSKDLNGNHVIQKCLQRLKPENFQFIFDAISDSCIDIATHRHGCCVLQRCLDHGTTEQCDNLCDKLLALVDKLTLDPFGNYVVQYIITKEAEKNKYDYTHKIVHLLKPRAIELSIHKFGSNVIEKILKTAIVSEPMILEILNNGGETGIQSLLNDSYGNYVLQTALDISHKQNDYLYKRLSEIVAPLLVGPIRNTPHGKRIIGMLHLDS

B1: Ib_S1_P5E.1_K5.1_C5.1_H5.1_[T1A]_A5.1_[A7T]_F5.1_T5.1 (ssRNA)
RNA: UCUCUUAGUAUUUUUAUCUCUU
B2: Ia_S1_P5E.1_K5.1_C5.1_H5.1_A5.1_[T6C]_F5.1_T5.1 (ssRNA)
RNA: UCUCUUUGUAUCAUUAUCUCUU
B3: Ib_S1_P5E.1_K5.1_C5.1_H5.1_[T1A]_A5.1_[A7C]_F5.1_T5.1 (ssRNA)
RNA: UCUCUUAGUAUUCUUAUCUCUU
B4: Id_ii_S4_P3E.3_K3.2_C3.2_[C-2T]_H3.2_A3.1_F3.1_T3.2_[A10T] (ssRNA)
RNA: UUUGACAACUGAUCGUUCUUUCUUUUAUAUAUAUUUUCUUUCUCGAUCAGUUGUCUUU
B5: Id_ii_S4_P3E.3_K3.2_C3.2_[C-2T]_H3.2_A3.1_F3.1_T3.2 (ssRNA)
RNA: UUUGACAACUGAUCGUUCUUUCUUUUAUAUAUAUAUUCUUUCUCGAUCAGUUGUCUUU
B6: Id_ii_S4_P3E.3_K3.2_C3.2_H3.2_A3.1_F3.1_T3.2_[A10C] (ssRNA)
RNA: UUUGACAACUGAUCGUUCUUUCUCUUAUAUAUAUCUUCUUUCUCGAUCAGUUGUCUUU
B7: Id_ii_S4_P3E.3_K3.2_C3.2_[C-2A]_[T-1G]_H3.2_A3.1_F3.1_T3.2_[T9A]_[A10G] (ssRNA)
RNA: UUUGACAACUGAUCGUUCUUUCUAGUAUAUAUAAGUUCUUUCUCGAUCAGUUGUCUUU
B8: Id_ii_S4_P3E.3_K3.2_C3.2_H3.2_A3.1_F3.1_T3.2 (ssRNA)
RNA: UUUGACAACUGAUCGUUCUUUCUCUUAUAUAUAUAUUCUUUCUCGAUCAGUUGUCUUU
B9: Id_ii_S4_P3E.3_K3.2_C3.2_H3.2_A3.1_F3.1_T3.2_[T9G]_[A10C] (ssRNA)
RNA: UUUGACAACUGAUCGUUCUUUCUCUUAUAUAUAGCUUCUUUCUCGAUCAGUUGUCUUU
B10: Id_ii_S4_P3E.3_K3.2_C3.2_[C-2A]_H3.2_A3.1_F3.1_T3.2_[A10G] (ssRNA)
RNA: UUUGACAACUGAUCGUUCUUUCUAUUAUAUAUAUGUUCUUUCUCGAUCAGUUGUCUUU
B11: Id_ii_S4_P3E.3_K3.2_C3.2_H3.2_A3.1_F3.1_T3.2_[T9C]_[A10C] (ssRNA)
RNA: UUUGACAACUGAUCGUUCUUUCUCUUAUAUAUACCUUCUUUCUCGAUCAGUUGUCUUU
B12: Id_ii_S4_P3E.3_K3.2_C3.2_[C-2A]_[T-1A]_H3.2_A3.1_F3.1_T3.2_[A10C] (ssRNA)
RNA: UUUGACAACUGAUCGUUCUUUCUAAUAUAUAUAUCUUCUUUCUCGAUCAGUUGUCUUU
B13: Id_ii_S4_P3E.3_K3.2_C3.2_[C-2A]_[T-1A]_H3.2_A3.1_F3.1_T3.2_[T9C]_[A10G] (ssRNA)
RNA: UUUGACAACUGAUCGUUCUUUCUAAUAUAUAUACGUUCUUUCUCGAUCAGUUGUCUUU
B14: Id_ii_S4_P3E.3_K3.2_C3.2_[C-2A]_[T-1C]_H3.2_A3.1_F3.1_T3.2_[T9C]_[A10T] (ssRNA)
RNA: UUUGACAACUGAUCGUUCUUUCUACUAUAUAUACUUUCUUUCUCGAUCAGUUGUCUUU
B15: Id_ii_S4_P3E.3_K3.2_C3.2_[T-1C]_H3.2_A3.1_F3.1_T3.2_[T9C]_[A10C] (ssRNA)
RNA: UUUGACAACUGAUCGUUCUUUCUCCUAUAUAUACCUUCUUUCUCGAUCAGUUGUCUUU
B16: Id_ii_S4_P3E.3_K3.2_C3.2_[C-2A]_[T-1C]_H3.2_A3.1_F3.1_T3.2_[T9C]_[A10G] (ssRNA)
RNA: UUUGACAACUGAUCGUUCUUUCUACUAUAUAUACGUUCUUUCUCGAUCAGUUGUCUUU
B17: Id_ii_S4_P3E.3_K3.2_C3.2_[T-1A]_H3.2_A3.1_F3.1_T3.2_[T9G]_[A10C] (ssRNA)
RNA: UUUGACAACUGAUCGUUCUUUCUCAUAUAUAUAGCUUCUUUCUCGAUCAGUUGUCUUU
B18: Id_ii_S4_P3E.3_K3.2_C3.2_[C-2A]_H3.2_A3.1_F3.1_T3.2_[A10C] (ssRNA)
RNA: UUUGACAACUGAUCGUUCUUUCUAUUAUAUAUAUCUUCUUUCUCGAUCAGUUGUCUUU
B19: Id_ii_S4_P3E.3_K3.2_C3.2_H3.2_A3.1_F3.1_T3.2_[A10G] (ssRNA)
RNA: UUUGACAACUGAUCGUUCUUUCUCUUAUAUAUAUGUUCUUUCUCGAUCAGUUGUCUUU
B20: Id_ii_S4_P3E.3_K3.2_C3.2_[T-1C]_H3.2_A3.1_F3.1_T3.2_[T9C]_[A10T] (ssRNA)
RNA: UUUGACAACUGAUCGUUCUUUCUCCUAUAUAUACUUUCUUUCUCGAUCAGUUGUCUUU
B21: Id_ii_S4_P3E.4_K3.3_C3.2_[C-2G]_[T-1C]_H3.3_A3.1_F3.1_T3.2_[T9G]_[A10T] (ssRNA)
RNA: UUUGACAACUGAUCGUUCUUUCUGCACACUAUAGUUUCUUUCUCGAUCAGUUGUCUUU
B22: Id_ii_S4_P3E.3_K3.2_C3.2_[T-1G]_H3.2_A3.1_F3.1_T3.2_[T9A] (ssRNA)
RNA: UUUGACAACUGAUCGUUCUUUCUCGUAUAUAUAAAUUCUUUCUCGAUCAGUUGUCUUU
B23: Id_ii_S4_P3E.3_K3.2_C3.2_[T-1C]_H3.2_A3.1_F3.1_T3.2_[T9A]_[A10C] (ssRNA)
RNA: UUUGACAACUGAUCGUUCUUUCUCCUAUAUAUAACUUCUUUCUCGAUCAGUUGUCUUU
B24: Id_ii_S4_P3E.3_K3.2_C3.2_[C-2A]_H3.2_A3.1_F3.1_T3.2_[T9C]_[A10T] (ssRNA)
RNA: UUUGACAACUGAUCGUUCUUUCUAUUAUAUAUACUUUCUUUCUCGAUCAGUUGUCUUU
B25: Id_ii_S4_P3E.3_K3.2_C3.2_[C-2A]_[T-1A]_H3.2_A3.1_F3.1_T3.2_[T9A] (ssRNA)
RNA: UUUGACAACUGAUCGUUCUUUCUAAUAUAUAUAAAUUCUUUCUCGAUCAGUUGUCUUU
B26: Id_ii_S4_P3E.3_K3.2_C3.2_[C-2A]_H3.2_A3.1_F3.1_T3.2 (ssRNA)
RNA: UUUGACAACUGAUCGUUCUUUCUAUUAUAUAUAUAUUCUUUCUCGAUCAGUUGUCUUU
B27: Id_ii_S4_P3E.3_K3.2_C3.2_H3.2_A3.1_F3.1_T3.2_[T9A]_[A10C] (ssRNA)
RNA: UUUGACAACUGAUCGUUCUUUCUCUUAUAUAUAACUUCUUUCUCGAUCAGUUGUCUUU
B28: Id_ii_S4_P3E.3_K3.2_C3.2_[C-2A]_[T-1A]_H3.2_A3.1_F3.1_T3.2_[T9A]_[A10C] (ssRNA)
RNA: UUUGACAACUGAUCGUUCUUUCUAAUAUAUAUAACUUCUUUCUCGAUCAGUUGUCUUU
B29: Id_ii_S4_P3E.3_K3.2_C3.2_[C-2A]_H3.2_A3.1_F3.1_T3.2_[T9A] (ssRNA)
RNA: UUUGACAACUGAUCGUUCUUUCUAUUAUAUAUAAAUUCUUUCUCGAUCAGUUGUCUUU
B30: Id_ii_S4_P3E.3_K3.2_C3.2_[T-1A]_H3.2_A3.1_F3.1_T3.2_[T9A] (ssRNA)
RNA: UUUGACAACUGAUCGUUCUUUCUCAUAUAUAUAAAUUCUUUCUCGAUCAGUUGUCUUU
B31: Id_ii_S4_P3E.3_K3.2_C3.2_H3.2_A3.1_F3.1_T3.2_[A10T] (ssRNA)
RNA: UUUGACAACUGAUCGUUCUUUCUCUUAUAUAUAUUUUCUUUCUCGAUCAGUUGUCUUU
B32: Id_ii_S4_P3E.3_K3.2_C3.2_[C-2A]_[T-1A]_H3.2_A3.1_F3.1_T3.2_[T9A]_[A10T] (ssRNA)
RNA: UUUGACAACUGAUCGUUCUUUCUAAUAUAUAUAAUUUCUUUCUCGAUCAGUUGUCUUU
B33: Id_ii_S4_P3E.3_K3.2_C3.2_[C-2A]_H3.2_A3.1_F3.1_T3.2_[A10T] (ssRNA)
RNA: UUUGACAACUGAUCGUUCUUUCUAUUAUAUAUAUUUUCUUUCUCGAUCAGUUGUCUUU
B34: Id_ii_S4_P3E.3_K3.2_C3.2_[C-2A]_[T-1A]_H3.2_A3.1_F3.1_T3.2_[T9C]_[A10T] (ssRNA)
RNA: UUUGACAACUGAUCGUUCUUUCUAAUAUAUAUACUUUCUUUCUCGAUCAGUUGUCUUU
B35: Id_ii_S4_P3E.3_K3.2_C3.2_[C-2A]_[T-1C]_H3.2_A3.1_F3.1_T3.2_[T9C]_[A10C] (ssRNA)
RNA: UUUGACAACUGAUCGUUCUUUCUACUAUAUAUACCUUCUUUCUCGAUCAGUUGUCUUU
B36: Id_ii_S4_P3E.3_K3.2_C3.2_[C-2A]_[T-1C]_H3.2_A3.1_F3.1_T3.2_[T9C] (ssRNA)
RNA: UUUGACAACUGAUCGUUCUUUCUACUAUAUAUACAUUCUUUCUCGAUCAGUUGUCUUU
B37: Id_ii_S4_P3E.3_K3.2_C3.2_[T-1G]_H3.2_A3.1_F3.1_T3.2_[T9G]_[A10C] (ssRNA)
RNA: UUUGACAACUGAUCGUUCUUUCUCGUAUAUAUAGCUUCUUUCUCGAUCAGUUGUCUUU
B38: Id_ii_S4_P3E.3_K3.2_C3.2_[T-1C]_H3.2_A3.1_F3.1_T3.2_[A10G] (ssRNA)
RNA: UUUGACAACUGAUCGUUCUUUCUCCUAUAUAUAUGUUCUUUCUCGAUCAGUUGUCUUU
B39: Id_ii_S4_P3E.3_K3.2_C3.2_[T-1G]_H3.2_A3.1_F3.1_T3.2_[T9C]_[A10C] (ssRNA)
RNA: UUUGACAACUGAUCGUUCUUUCUCGUAUAUAUACCUUCUUUCUCGAUCAGUUGUCUUU
B40: Id_ii_S4_P3E.3_K3.2_C3.2_[T-1C]_H3.2_A3.1_F3.1_T3.2_[A10T] (ssRNA)
RNA: UUUGACAACUGAUCGUUCUUUCUCCUAUAUAUAUUUUCUUUCUCGAUCAGUUGUCUUU
B41: Id_ii_S4_P3E.3_K3.2_C3.2_[T-1C]_H3.2_A3.1_F3.1_T3.2_[T9G]_[A10T] (ssRNA)
RNA: UUUGACAACUGAUCGUUCUUUCUCCUAUAUAUAGUUUCUUUCUCGAUCAGUUGUCUUU
B42: Ib_S1_P5E.1_K5.1_C5.1_H5.1_[G2C]_A5.1_[T5C]_F5.1_T5.1 (ssRNA)
RNA: UCUCUUUCUACUAUUAUCUCUU
B43: Ib_S1_P5E.1_K5.1_C5.1_H5.1_[G2C]_A5.1_[T5A]_F5.1_T5.1 (ssRNA)
RNA: UCUCUUUCUAAUAUUAUCUCUU
B44: Id_ii_S4_P3E.4_K3.3_C3.2_[C-2G]_[T-1C]_H3.3_A3.1_F3.1_T3.2_[T9C]_[A10C] (ssRNA)
RNA: UUUGACAACUGAUCGUUCUUUCUGCACACUAUACCUUCUUUCUCGAUCAGUUGUCUUU
B45: Id_ii_S4_P3E.4_K3.3_C3.2_[C-2G]_[T-1C]_H3.3_A3.1_F3.1_T3.2_[T9C] (ssRNA)
RNA: UUUGACAACUGAUCGUUCUUUCUGCACACUAUACAUUCUUUCUCGAUCAGUUGUCUUU

Target: T1, PUF4 RNA-binding domain
Experiment: Mg; RNA-MaP; 20 mM Na-HEPES pH 7.4, 30 mM KOAc, 0.75 mM MgCl2, 0.1% Tween-20, 5% glycerol, 0.1 mg/mL BSA, 2 mM DTT; 25 C; 0.0125-409.6 nM protein
Details: tags: N-His6-TEV cleaved; C-SNAP kept, Cy3B-labelled; label: tethered on chip by stalled RNA polymerase

Binder	Kd
B1	1470 nM
B2	6.62 nM
B3	1460 nM
B4	70 nM
B5	117 nM
B6	104 nM
B7	1140 nM
B8	68.6 nM
B9	567 nM
B10	978 nM
B11	190 nM
B12	296 nM
B13	745 nM
B14	132 nM
B15	244 nM
B16	2050 nM
B17	243 nM
B18	134 nM
B19	276 nM
B20	92.9 nM
B21	593 nM
B22	404 nM
B23	467 nM

Binder	Kd
B24	214 nM
B25	723 nM
B26	596 nM
B27	176 nM
B28	445 nM
B29	831 nM
B30	842 nM
B31	56.4 nM
B32	584 nM
B33	203 nM
B34	167 nM
B35	184 nM
B36	261 nM
B37	194 nM
B38	126 nM
B39	978 nM
B40	37.4 nM
B41	392 nM
B42	> 2300 nM
B43	> 2300 nM
B44	50.2 nM
B45	115 nM
